For assay [1], the target named is T1, MOCS2B wild-type (large subunit of MPT synthase) (human, UniProt O96007 1-188).
T1 construct: MOCS2B, large subunit of molybdopterin (MPT) synthase, human; encoded by MOCS2 transcript variant 3 (NM_004531.5); Cloned into pET15b, a vector that can add an N-terminal His tag; also called MOCS2B WT; WT MOCS2B; source: Escherichia coli BL21 (pET15b), purified (ammonium sulfate precipitation, size exclusion chromatography on Superdex 200)
T1 sequence (looked up): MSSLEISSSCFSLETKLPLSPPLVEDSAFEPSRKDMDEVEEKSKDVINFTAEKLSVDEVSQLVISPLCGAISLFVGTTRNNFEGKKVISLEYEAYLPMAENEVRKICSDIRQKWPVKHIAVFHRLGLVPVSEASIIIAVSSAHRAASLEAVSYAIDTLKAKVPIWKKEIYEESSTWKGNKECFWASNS
Kind of assay: ITC; VP-ITC; 20-50 uM MOCS2B in the sample cell (1.5 mL), 200-500 uM MOCS2A in the syringe; 10 mM Tris-HCl, 250 mM NaCl, pH 8.0; n = 3 experiments. The following applies: both partners purified. A general note: Isothermal titration calorimetry measures the heat released or taken up as one component is titrated into another.

The target in assay [2] is T2, MOCS2B p.Leu19Phe variant (human, UniProt O96007 1-188, p.Leu19Phe).
T2 construct: MOCS2B, large subunit of molybdopterin (MPT) synthase, human, patient variant c.57A>T (NM_004531.5; p.Leu19Phe), rs776441627; Variant found in patients (natural variant); Cloned into pET15b; also called MOCS2B L19F; MOCS2B Leu19Phe; source: Escherichia coli BL21 (pET15b), purified (ammonium sulfate precipitation, size exclusion chromatography on Superdex 200)
T2 sequence (looked up): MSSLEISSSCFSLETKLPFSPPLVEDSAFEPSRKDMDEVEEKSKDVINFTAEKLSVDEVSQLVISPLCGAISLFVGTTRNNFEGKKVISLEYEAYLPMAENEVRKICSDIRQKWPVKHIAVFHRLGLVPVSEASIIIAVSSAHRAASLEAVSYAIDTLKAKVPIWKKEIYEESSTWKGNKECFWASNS
Described as above. Conditions: both partners purified.

Assay [3] has as its target T2, MOCS2B p.Leu19Phe variant. Kind of assay: cell-based or functional assay.

B1: MOCS2A wild-type (small subunit of MPT synthase) (natural protein, human, UniProt O96033 1-88, looked up)
chain: MVPLCQVEVLYFAKSAEITGVRSETISVPQEIKALQLWKEIETRHPGLADVRNQIIFAVRQEYVELGDQLLVLQPGDEIAVIPPISGG
modifications: thiocarboxylated C-terminal tail
notes: MOCS2A, small subunit of molybdopterin (MPT) synthase, human; encoded by MOCS2 transcript variant 1 (NM_176806.4); also called MOCS2A WT; WT MOCS2A
Consider B1, for which, in assay [1], binding was characterised by a dissociation constant (Kd) of 0.359 ± 0.047 µM and the stoichiometry N (in general, the number of molecules, sites or subunits per partner or assembly) was determined as 1.15 ± 0.2. Moreover, binding in assay [2] was characterised by a dissociation constant (Kd) of 0.114 ± 0.016 µM.

B2: MOCS2A p.Ile82Phe variant (natural protein, human, UniProt O96033 1-88, looked up)
chain: MVPLCQVEVLYFAKSAEITGVRSETISVPQEIKALQLWKEIETRHPGLADVRNQIIFAVRQEYVELGDQLLVLQPGDEIAVFPPISGG
modifications: thiocarboxylated C-terminal tail
notes: MOCS2A, small subunit of molybdopterin (MPT) synthase, human, patient variant c.244A>T (NM_176806.4; p.Ile82Phe), rs776441627; Variant found in patients (natural variant); also called MOCS2A I82F; MOCS2 p.Ile82Phe
Consider B2, for which, in assay [3], the “in vitro MPT synthesis activity (500 pmol cPMP, 200 pmol MOCS2B, 0-500 pmol MOCS2A; HPLC Form A method), relative to WT MOCS2A/B” value is ~20 % of WT. The Kd – broadly, a measure of binding affinity in units of concentration – stood at 2.8 ± 0.3 µM in assay [1] and 7.4 ± 2.1 µM in assay [2].

(Values after article PMC12289762, “A prevalent MOCS2 variant in the Roma population is associated with a novel mild form of molybdenum cofactor deficiency” (European Journal of Pediatrics, 2025).)
